Assay [1] concerns the target taxol-stabilised microtubules polymerised from pig brain tubulin (pig) (UniProt P02550). In words: TIRF imaging of labeled Lis1 on microtubules.
The target is the same in assay [2]. The assay is described as follows: co-sedimentation.

pKd: −log10 of the molar value.

In general, pKd refers to the Kd on a negative log10 scale, so that one unit is a factor of ten. A lower pKd goes with a high Kd.

Chain of Lis1 (Pac1, the Lis1 homolog in S. cerevisiae), wild-type dimer (P39946 whole entry): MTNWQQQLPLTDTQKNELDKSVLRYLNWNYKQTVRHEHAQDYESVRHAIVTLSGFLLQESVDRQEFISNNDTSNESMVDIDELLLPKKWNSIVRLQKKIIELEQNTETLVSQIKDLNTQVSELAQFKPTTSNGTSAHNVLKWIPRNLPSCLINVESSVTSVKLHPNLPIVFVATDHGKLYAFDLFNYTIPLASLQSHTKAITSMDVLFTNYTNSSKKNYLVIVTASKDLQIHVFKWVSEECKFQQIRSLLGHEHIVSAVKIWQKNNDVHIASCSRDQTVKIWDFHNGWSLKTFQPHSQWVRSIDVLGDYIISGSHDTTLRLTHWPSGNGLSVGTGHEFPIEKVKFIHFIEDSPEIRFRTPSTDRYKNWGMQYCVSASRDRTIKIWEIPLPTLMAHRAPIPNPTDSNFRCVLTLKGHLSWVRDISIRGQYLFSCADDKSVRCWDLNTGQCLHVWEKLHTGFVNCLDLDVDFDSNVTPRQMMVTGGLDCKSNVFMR
Chain of taxol-stabilised microtubules polymerised from pig brain tubulin (pig) (P02550 whole entry): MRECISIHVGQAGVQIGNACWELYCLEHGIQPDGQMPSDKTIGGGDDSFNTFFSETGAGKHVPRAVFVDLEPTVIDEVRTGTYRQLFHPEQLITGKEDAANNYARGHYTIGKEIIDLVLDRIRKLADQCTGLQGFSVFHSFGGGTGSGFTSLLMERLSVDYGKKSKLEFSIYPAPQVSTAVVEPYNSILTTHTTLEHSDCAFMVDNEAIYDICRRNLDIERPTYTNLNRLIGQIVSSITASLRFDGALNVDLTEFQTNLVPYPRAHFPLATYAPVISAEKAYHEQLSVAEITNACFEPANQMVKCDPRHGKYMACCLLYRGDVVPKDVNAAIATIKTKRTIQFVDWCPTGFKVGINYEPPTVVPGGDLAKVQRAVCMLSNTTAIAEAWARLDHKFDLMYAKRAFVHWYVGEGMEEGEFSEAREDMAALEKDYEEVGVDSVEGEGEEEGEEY
Chain of monomeric Lis1 lacking its amino-terminal dimerization domain (domain or fragment) (A6ZPA6 whole entry, the tested form may be a part): as the sequence (P39946 whole entry) above

Consider “monomeric Lis1 lacking its amino-terminal dimerization domain (domain or fragment)”, for which the time to dissociation from the microtubule in assay [1] was in the range of 1 to 2 s.
In assay [2], “Lis1 (Pac1, the Lis1 homolog in S. cerevisiae), wild-type dimer (from UniProt P39946 1-494) (natural protein)” gave a pKd of 7.06. In assay [1], this substance came in with a percent of Lis1 intensity on microtubules lost after washing of 92% and a residence time on the microtubule of 19.3 s.

The record behind these values is article doi:10.1101/2022.06.02.494578.
